Assay results: paper PMC2133087 (The Journal of Cell Biology, 1998)

B1: full-length His6-s-nexilin (natural protein)
chain: MNDVSQKAEIKDMLASDEEEEPSKVEKAYVPKLTGTVKGKFDEMEKHRQEEQRKRTEEERKRRIEQDLLEKRKMQRELAKRAEQIEDINNTGTESASEEGDDSLLITVVPAKSYRAAANRKDPEDLDREHRNGRVSQEEEKTRHEEECRALKEAKCLSLVMDDETEAKKESRFPGKLKSTFEELERQRQENRKKQAEEEARRRLEEERRAFEEARRNMVNEEDESQDTETVFKEYRPGKLRLSFEEIERQRREEEKRKAEEEARRRMEEEKKAFAEARRSMVLDDDSPEIYKAVSQESLTPGKLEINFEQLLRQKMEEERRRTEEERRQKLEMEKQEFEQLRQEMGKEEEENESFGLSREYEELIKLKRSGSIQAKNLKSKFEKIGQLSEKEVQKKIEEERAKRRAIDLEIKEREAENFHEDDDVDVKPAKKSESPFTHKVNMKARFEQMAKARQEEEQRRIEEQKLLRMQFEQKEIDAALQKKREDDEEEEGSIVNGSTTEDEEQTRSGAPWFKKPLRNTSVVDSEPVRFTVKVTGEPKPEVTWWFEGELLQDGEDYQYIERGETYCLYLPETFPEDGGEYMCKAVNSKGSAASTCILTIEMDDY
B2: full-length His6-b-nexilin (natural protein)
chain: MNDVSQKAEILLSSSKPVPKSYVPKLGKGDVKDKFEAMQRAREERNQRRSRDEKQRRKEQYIREREWNRRKQEIKDMLASDEEEEPSKVEKAYVPKLTGTVKGKFDEMEKHRQEEQRKRTEEERKRRIEQDLLEKRKMQRELAKRAEQEGDDSLLITVVPAKSYRAAANRKDPEDLDREHRNGRVSQEEEKTRHEEECRALKEAKCLSLVMDDETEAKKESRFPGKLKSTFEELERQRQENRKKQAEEEARRRLEEERRAFEEARRNMVNEEDESQDTETVFKEYRPGKLRLSFEEIERQRREEEKRKAEEEARRRMEEEKKAFAEARRSMVLDDDSPEIYKAVSQESLTPGKLEINFEQLLRQKMEEERRRTEEERRQKLEMEKQEFEQLRQEMGKEEEENESFGLSREYEELIKLKRSGSIQAKNLKSKFEKIGQLSEKEVQKKIEEERAKRRAIDLEIKEREAENFHEDDDVDVKPAKKSESPFTHKVNMKARFEQMAKARQEEEQRRIEEQKLLRMQFEQKEIDAALQKKREDDEEEEGSIVNGSTTEDEEQTRSGAPWFKKPLRNTSVVDSEPVRFTVKVTGEPKPEVTWWFEGELLQDGEDYQYIERGETYCLYLPETFPEDGGEYMCKAVNSKGSAASTCILTIEMDDY

Biological target: actin filament (F-actin) polymerized from G-actin purified from rabbit skeletal muscle (rabbit, UniProt P68135 1-377)
Experiment: co-sedimentation

Row | Binder | stoichiometry N
1 | B1 | ~10 actin molecules per His6-s-nexilin molecule
2 | B2 | ~9 actin molecules per His6-b-nexilin molecule
